“Also recorded” adds a separate entry of the source.
Experiments:
Format in all cases: binding
LEF-1 = molecular target: T1, LEF-1 (Mus musculus, UniProt P27782); assay: yeast 2-hybrid: interaction of β-catenin mutants with LEF-1; settings: for Interaction With LEF-1, share of wild type β-catenin interaction: yeast 2-hybrid, alanine mutants
T1 construct: the cDNA of LEF-1 for the amino acids 1–99; expressed in transfected cells; host or cells: yeast (two-hybrid, Matchmaker, Clontech)
Method: (§1) The mutagenesis of β-catenin in the armadillo repeats 3–8 was carried out by means of the “mutagenesis kit” of the company Clontech according to the producer's record and the mutants were checked by sequencing (FIG. 5). In all mutants the original amino acid was substituted by alanine. For analyzing the interactions the cDNA of human β-catenin (armadillo repeat 3 up to the C-terminal end of the protein) coding for the amino acids Leu218–Leu7 μl or its mutants was cloned into the fusion vector for the activation domain of Gal-4 (pGAD424, Clontech). The cDNA for the binding domains of the interaction partners was cloned into the Lex-A fusion vector BTM 116. To this end, the cDNA of LEF-1 for the amino acids 1–99, conductin for the amino acids Ala342–ARG465; of human APC for the amino acids His1012–Glu1215 (APC 15 amino acid repeats) and for the amino acids Ser1259Asp 1400 (APC 20 amino acid repeats) and E-cadherin for the amino acids Gin773–Asp884 (cytoplasmatic domain) were amplified with the respective primers PCR. The interaction of the Lex-A hybrids with β-catenin and its mutants was quantified by means of the β-galactosidase reporter activity in the yeast 2-hybrid system (report: “Matchmaker”. Clontech) (Tab. 2 and FIG. 6).

[1] = molecular target: T2, APC (20 amino acid repeats) (Homo sapiens, UniProt P25054); assay: yeast 2-hybrid: interaction of β-catenin mutants with APC 20 amino acid repeats; settings: for Interaction With APC-20, share of wild type β-catenin interaction: yeast 2-hybrid, alanine mutants
T2 construct: for the amino acids Ser1259Asp 1400 (APC 20 amino acid repeats); expressed in transfected cells; host or cells: yeast (two-hybrid, Matchmaker, Clontech)
T2 sequence (P25054 1253-1394 limits assumed): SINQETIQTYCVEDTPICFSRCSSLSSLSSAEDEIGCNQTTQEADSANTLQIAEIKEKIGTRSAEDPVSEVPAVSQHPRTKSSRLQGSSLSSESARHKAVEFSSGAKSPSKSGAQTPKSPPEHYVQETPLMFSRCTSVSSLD
Procedure, shortened: (§2)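 Alanine-substituted human β-catenin mutants (armadillo repeat 3 to C-terminus, from Leu218) fused to Gal4 activation domain; partner fragments fused to LexA: E-cadherin Gln773–Asp884, APC His1012–Glu1215 or Ser1259–Asp1400, conductin Ala342–Arg465. Interaction quantified by β-galactosidase reporter activity in yeast.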

E-cadherin = molecular target: T3, E-cadherin (Mus musculus, UniProt P09803); assay: yeast 2-hybrid: interaction of β-catenin mutants with E-cadherin; settings: alanine mutants
T3 construct: E-cadherin for the amino acids Gin773–Asp884 (cytoplasmatic domain); expressed in transfected cells; host or cells: yeast (two-hybrid, Matchmaker, Clontech)
T3 sequence (P09803 773-884): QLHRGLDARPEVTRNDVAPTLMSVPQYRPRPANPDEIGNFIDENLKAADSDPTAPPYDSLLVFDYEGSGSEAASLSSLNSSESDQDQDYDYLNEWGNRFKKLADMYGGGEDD
Method: as §1

conductin = molecular target: T4, conductin (Mus musculus, UniProt O88566); assay: yeast 2-hybrid: interaction of β-catenin mutants with conductin; settings: for Interaction With Conductin, share of wild type β-catenin interaction: yeast 2-hybrid, alanine mutants; for interaction with conductin: β-catenin mutation, in words
T4 construct: conductin for the amino acids Ala342–ARG465; expressed in transfected cells; host or cells: yeast (two-hybrid, Matchmaker, Clontech)
T4 sequence (O88566 343-465 limits assumed): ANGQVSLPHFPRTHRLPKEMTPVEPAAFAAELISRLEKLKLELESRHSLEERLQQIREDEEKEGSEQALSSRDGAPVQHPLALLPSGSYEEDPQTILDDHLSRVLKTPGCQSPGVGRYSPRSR
Procedure, shortened: as §2

[2] = molecular target: T5, APC (15 amino acid repeats) (Homo sapiens, UniProt P25054); assay: yeast 2-hybrid: interaction of β-catenin mutants with APC 15 amino acid repeats; settings: yeast 2-hybrid, alanine mutants
T5 construct: of human APC for the amino acids His1012–Glu1215 (APC 15 amino acid repeats); expressed in transfected cells; host or cells: yeast (two-hybrid, Matchmaker, Clontech)
T5 sequence (P25054 1006-1209 limits assumed): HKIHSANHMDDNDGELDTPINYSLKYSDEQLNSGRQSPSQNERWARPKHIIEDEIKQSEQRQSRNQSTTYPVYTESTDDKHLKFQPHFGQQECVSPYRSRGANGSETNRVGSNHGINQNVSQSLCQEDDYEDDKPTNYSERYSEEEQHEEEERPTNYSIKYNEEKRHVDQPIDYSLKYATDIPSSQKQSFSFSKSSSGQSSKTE
Procedure, shortened: as §2

T1 sequence (P27782 1-99): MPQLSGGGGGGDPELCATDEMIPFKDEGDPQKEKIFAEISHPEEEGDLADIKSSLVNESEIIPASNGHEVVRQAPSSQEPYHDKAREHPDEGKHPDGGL

Row | Molecule | interaction with LEF-1/TCF-4 (LEF-1; β-catenin mutation, in words) | Interaction With APC-20, share of wild type β-catenin interaction [1] [%] | Interaction With E-Cadherin, share of wild type β-catenin interaction (E-cadherin) | Interaction With Conductin, share of wild type β-catenin interaction (conductin) | Interaction With APC-15, share of wild type β-catenin interaction [2] | Interaction With LEF-1, share of wild type β-catenin interaction (LEF-1) | interaction with conductin (conductin) | interaction with APC 20aa ([1]; β-catenin mutation, in words)
1 | His 470: human β-catenin mutant, His 470 substituted by alanine (arm 8) (protein, left off: large carriers; small tags and cut ends) LHNLSHHREGLLAIFKSGGIPALVKMLGSPVDSVLFYAITTLHNLLLHQEGAKMAVRLAGGLQKMVALLNKTNVKFLAITTDCLQILAYGNQESKLIILASGGPQALVNIMRTYTYEKLLWTTSRVLKVLSVCSSNKPAIVEAGGMQALGLHLTDPSQRLVQNCLWTLRNLSDAATKQEGMEGLLGTLVQLLGSDDINVVTCAAGILSNLTCNNYKNKMMVCQVGGIEALVRTVLRAGDREDITEPAICALRALTSRHQEAEMAQNAVRLHYGLPVVVKLLHPPSHWPLIKATVGLIRNLALCPANHAPLREQGAIPRLVQLLVRAHQDTQRRTSMGGTQQQFVEGVRMEEIVEGCTGALHILARDVHNRIVIRGLNTIPLFVQLLYSPIENIQRVAAGVLCELAQDKEAAEAIEAEGATAPLTELLHSRNEGVATYAAAVLFRMSEDKPQDYKKRLSVELTSSLFRTEPMAWNETADLGLDIGAQGEPLGYRQDDPSYRSFHSGGYGQDALGMDPMMEHEMGGHHPGADYPVDGLPDLGHAQDLMDGLPPGDSNQLAWFDTDL | blocking the interaction; also recorded: no interaction with LEF-1/TCF-4 | 47 | — (Interactions marked by — correspond to 60–100% of the wild type interaction) | — (Interactions marked by — correspond to 60–100% of the wild type interaction) | 60% |  |  | 
2 | Phe 253: human β-catenin mutant, Phe 253 substituted by alanine (arm 3) (protein, left off: large carriers; small tags and cut ends) LHNLSHHREGLLAIFKSGGIPALVKMLGSPVDSVLAYAITTLHNLLLHQEGAKMAVRLAGGLQKMVALLNKTNVKFLAITTDCLQILAYGNQESKLIILASGGPQALVNIMRTYTYEKLLWTTSRVLKVLSVCSSNKPAIVEAGGMQALGLHLTDPSQRLVQNCLWTLRNLSDAATKQEGMEGLLGTLVQLLGSDDINVVTCAAGILSNLTCNNYKNKMMVCQVGGIEALVRTVLRAGDREDITEPAICALRHLTSRHQEAEMAQNAVRLHYGLPVVVKLLHPPSHWPLIKATVGLIRNLALCPANHAPLREQGAIPRLVQLLVRAHQDTQRRTSMGGTQQQFVEGVRMEEIVEGCTGALHILARDVHNRIVIRGLNTIPLFVQLLYSPIENIQRVAAGVLCELAQDKEAAEAIEAEGATAPLTELLHSRNEGVATYAAAVLFRMSEDKPQDYKKRLSVELTSSLFRTEPMAWNETADLGLDIGAQGEPLGYRQDDPSYRSFHSGGYGQDALGMDPMMEHEMGGHHPGADYPVDGLPDLGHAQDLMDGLPPGDSNQLAWFDTDL |  | 40 | — (Interactions marked by — correspond to 60–100% of the wild type interaction) | 17% | — (Interactions marked by — correspond to 60–100% of the wild type interaction) | — (Interactions marked by — correspond to 60–100% of the wild type interaction) | no interaction with conductin | 
3 | Trp 338: human β-catenin mutant, Trp 338 substituted by alanine (arm 5) (protein, left off: large carriers; small tags and cut ends) LHNLSHHREGLLAIFKSGGIPALVKMLGSPVDSVLFYAITTLHNLLLHQEGAKMAVRLAGGLQKMVALLNKTNVKFLAITTDCLQILAYGNQESKLIILASGGPQALVNIMRTYTYEKLLATTSRVLKVLSVCSSNKPAIVEAGGMQALGLHLTDPSQRLVQNCLWTLRNLSDAATKQEGMEGLLGTLVQLLGSDDINVVTCAAGILSNLTCNNYKNKMMVCQVGGIEALVRTVLRAGDREDITEPAICALRHLTSRHQEAEMAQNAVRLHYGLPVVVKLLHPPSHWPLIKATVGLIRNLALCPANHAPLREQGAIPRLVQLLVRAHQDTQRRTSMGGTQQQFVEGVRMEEIVEGCTGALHILARDVHNRIVIRGLNTIPLFVQLLYSPIENIQRVAAGVLCELAQDKEAAEAIEAEGATAPLTELLHSRNEGVATYAAAVLFRMSEDKPQDYKKRLSVELTSSLFRTEPMAWNETADLGLDIGAQGEPLGYRQDDPSYRSFHSGGYGQDALGMDPMMEHEMGGHHPGADYPVDGLPDLGHAQDLMDGLPPGDSNQLAWFDTDL |  | 55 | — (Interactions marked by — correspond to 60–100% of the wild type interaction) | 20% | — (Interactions marked by — correspond to 60–100% of the wild type interaction) | — (Interactions marked by — correspond to 60–100% of the wild type interaction) | no interaction with conductin | 
4 | Trp 383: human β-catenin mutant, Trp 383 substituted by alanine (arm 6) (protein, left off: large carriers; small tags and cut ends) LHNLSHHREGLLAIFKSGGIPALVKMLGSPVDSVLFYAITTLHNLLLHQEGAKMAVRLAGGLQKMVALLNKTNVKFLAITTDCLQILAYGNQESKLIILASGGPQALVNIMRTYTYEKLLWTTSRVLKVLSVCSSNKPAIVEAGGMQALGLHLTDPSQRLVQNCLATLRNLSDAATKQEGMEGLLGTLVQLLGSDDINVVTCAAGILSNLTCNNYKNKMMVCQVGGIEALVRTVLRAGDREDITEPAICALRHLTSRHQEAEMAQNAVRLHYGLPVVVKLLHPPSHWPLIKATVGLIRNLALCPANHAPLREQGAIPRLVQLLVRAHQDTQRRTSMGGTQQQFVEGVRMEEIVEGCTGALHILARDVHNRIVIRGLNTIPLFVQLLYSPIENIQRVAAGVLCELAQDKEAAEAIEAEGATAPLTELLHSRNEGVATYAAAVLFRMSEDKPQDYKKRLSVELTSSLFRTEPMAWNETADLGLDIGAQGEPLGYRQDDPSYRSFHSGGYGQDALGMDPMMEHEMGGHHPGADYPVDGLPDLGHAQDLMDGLPPGDSNQLAWFDTDL |  | 0 | — (Interactions marked by — correspond to 60–100% of the wild type interaction) | — (Interactions marked by — correspond to 60–100% of the wild type interaction) | 59% | — (Interactions marked by — correspond to 60–100% of the wild type interaction) |  | no interaction with APC 20aa

Source: patent publication US7067474B1, “Agents for treating human illnesses based on β-catenin, and the production and use thereof” (Max-Delbruck-Centrum fur Molekulare Medizin, priority 1998, dated 2006)
